Source: US20110189093A1, “PROSTATE SPECIFIC MEMBRANE ANTIGEN ANTIBODIES AND ANTIGEN BINDING FRAGMENTS” (PROSCAN RX PHARMA, priority 2008, published 2011)

Tests used:
22 different tumor types = assay: Immunohistochemistry on tissue microarrays of tumor types
Method: (§1) Tissue and tumor specificity of mAbs: to compare the tissue and tumor specificity of monoclonal antibodies of the present invention, tissue microarrays of 30 different normal tissues (Biochain) and 22 different tumor types (Dako) including prostate cancer was used in order to characterize their recognition specificity. The immunohistochemistry was performed on antigen retrieved, formalin fixed, paraffin embedded material. Anti-PSMA mAbs J591 (ATCC HB-12126) and 7E11 (ATCC HB-10494) were used as references. Formalin fixed paraffin embedded […] sections were subjected to antigen retrieval in basic antigen retrieval solution (BD Pharmingen pH 9.5) in a microwavable pressure cooker for 10 min, cooled and equilibrated to 0.01M phosphate buffered saline (PBS) pH 7.4. Staining was carried out at room temperature in a humidified chamber. Endogenous peroxidases were inactivated with a 1% solution of H2O2 for 20 min, blocked with 5% normal goat serum (NGS) for 30 min and incubated with primary monoclonal antibodies (mAbs) diluted in PBS; 2% NGS overnight. Antibody binding to tissue sections was detected by the sequential addition of the following reagents followed by washing in PBS: goat anti-mouse IgG (H+L) (ICN) secondary antibody diluted 1:100 in PBS; 2% NGS for 1 hr, a complex of a bi-specific mAb mouse anti-peroxidase and horse radish peroxidase for 1 hr, and 3,3-diaminobenzidene tetrahydrochloride (DAB) at 0.6 mg/ml in PBS; 2% NGS; 0.01% H2O2 as chromogen. The primary antibodies were purified mAbs used at concentrations optimized in dilution experiments. […] Mouse IgG mAb was used at a concentration of 0.2 μg/ml and served as a negative control for the primary antibodies. Tissue samples included organ confined and metastatic prostate cancer, HGPIN and normal prostate tissues drawn from radical prostatectomies, transurethral resections and autopsy material.

[1] = tested on: 30 different normal tissues; assay: Immunohistochemistry on tissue microarrays of normal tissues
Method: as §1

B1: PSf42.3: anti-PSMA monoclonal antibody; light chain variable SEQ ID NO:49, heavy chain variable SEQ ID NO:50 (antibody, V domains shown)
VH: EVQLQQSGAELAKPGASVKLSCTGSGFNIKDTYMHWVKQRPEQGLEWIGGIDPETGNTKFDPRFQDKATITSDTSSNTVLLQLSSLTSEDTAVYYCANLGRPFAHWGQGTTVTVS
VL: HSADPVSISCKSSQSLLHRDGKTYLNWVFQRPGQSPQRLIYLVSLVDSGVPDRFTGSGSGTDFTLKINRVEAEDLGVYYCWQGTHFPRTFGGGTKLEIKRA
- No. of positive cases/total no. of cases studied (22 different tumor types; Astrocytoma): 0/2
- No. of positive cases/total no. of cases studied (22 different tumor types; Breast carcinoma): 0/2
- No. of positive cases/total no. of cases studied (22 different tumor types; Carcinoid): 0/3
- No. of positive cases/total no. of cases studied (22 different tumor types; Colonic adenocarcinoma): 0/2
- No. of positive cases/total no. of cases studied (22 different tumor types; Epithelioid sarcoma): 0/1
- No. of positive cases/total no. of cases studied (22 different tumor types; Ewing's sarcoma): 0/1
- No. of positive cases/total no. of cases studied (22 different tumor types; Gastric carcinoma): 0/2
- No. of positive cases/total no. of cases studied (22 different tumor types; Hepatocellular carcinoma): 0/2
- No. of positive cases/total no. of cases studied (22 different tumor types; Hodgkin's lymphoma): 2/13
- No. of positive cases/total no. of cases studied (22 different tumor types; Leiomyoma): 0/2
- No. of positive cases/total no. of cases studied (22 different tumor types; Lung adeno carcinoma): 0/2
- No. of positive cases/total no. of cases studied (22 different tumor types; Lymphoma): 0/3
- No. of positive cases/total no. of cases studied (22 different tumor types; Malignant fibrous histiocytoma): 0/1
- No. of positive cases/total no. of cases studied (22 different tumor types; Melanoma): 2/4
- No. of positive cases/total no. of cases studied (22 different tumor types; Mesothelioma): 0/2
- No. of positive cases/total no. of cases studied (22 different tumor types; Ovarian carcinoma): 0/2
- No. of positive cases/total no. of cases studied (22 different tumor types; Pancreatic carcinoma): 0/2
- No. of positive cases/total no. of cases studied (22 different tumor types; Prostatic carcinoma): 1/1
- No. of positive cases/total no. of cases studied (22 different tumor types; Renal cell carcinoma): 0/2
- No. of positive cases/total no. of cases studied (22 different tumor types; Rhabdosarcoma): 2/2
- No. of positive cases/total no. of cases studied (22 different tumor types; Thyroid carcinoma): 0/2
- No. of positive cases/total no. of cases studied (22 different tumor types; Undifferentiated carcinoma): 0/4
- No. of positive cases/total no. of cases studied ([1]; Adipose): 0/2
- No. of positive cases/total no. of cases studied ([1]; Bladder): 0/2
- No. of positive cases/total no. of cases studied ([1]; Brain): 0/2
- No. of positive cases/total no. of cases studied ([1]; Breast): 0/2
- No. of positive cases/total no. of cases studied ([1]; Cerebullum): 0/2
- No. of positive cases/total no. of cases studied ([1]; Cervix): 0/2
- No. of positive cases/total no. of cases studied ([1]; Colon): 0/2
- No. of positive cases/total no. of cases studied ([1]; Diaphragm): 2/2
- No. of positive cases/total no. of cases studied ([1]; Duodenum): 2/2
- No. of positive cases/total no. of cases studied ([1]; Esophagus): 2/2
- No. of positive cases/total no. of cases studied ([1]; Gallbladder): 0/2
- No. of positive cases/total no. of cases studied ([1]; Heart): 0/2
- No. of positive cases/total no. of cases studied ([1]; Ileum): 2/2
- No. of positive cases/total no. of cases studied ([1]; Jejenum): 2/2
- No. of positive cases/total no. of cases studied ([1]; Kidney): 2/2
- No. of positive cases/total no. of cases studied ([1]; Liver): 0/2
- No. of positive cases/total no. of cases studied ([1]; Lung): 0/2
- No. of positive cases/total no. of cases studied ([1]; Ovary): 0/2
- No. of positive cases/total no. of cases studied ([1]; Pancreas): 0/2
- No. of positive cases/total no. of cases studied ([1]; Placenta): 1/4
- No. of positive cases/total no. of cases studied ([1]; Rectum): 0/2
- No. of positive cases/total no. of cases studied ([1]; Skeletal muscle): 2/2
- No. of positive cases/total no. of cases studied ([1]; Skin): 0/2
- No. of positive cases/total no. of cases studied ([1]; Spleen): 0/2
- No. of positive cases/total no. of cases studied ([1]; Stomach): 0/2
- No. of positive cases/total no. of cases studied ([1]; Testis): 0/2
- No. of positive cases/total no. of cases studied ([1]; Thymus): 0/2
- No. of positive cases/total no. of cases studied ([1]; Thyroid): 0/2
- No. of positive cases/total no. of cases studied ([1]; Tonsil): 0/2
- No. of positive cases/total no. of cases studied ([1]; Uterus): 0/2

B2: PSf42.4: anti-PSMA monoclonal antibody; light chain variable SEQ ID NO:51, heavy chain variable SEQ ID NO:52 (antibody, V domains shown)
VH: EVKLQQSGAELVKPGASVKLSCTASGFSIRDTYMHWVRQRPEQGLEWITGIDPENGNSKYAPRFQDKATIIADTSSNTVHLQLDTLTSEDTAVYYCTRELAYWGQGTTVTVS
VL: DILMTQSPLTLSVIIGQPASFSCKSSHSLLHRDGRTYLNWLLQRPGQSPQRLIYLVSKLDSGVPDRFTGSGSGTDFTLKISRVEAEDLGVYYCWQGTHFPRTFGGGTKLEIKRA
- No. of positive cases/total no. of cases studied (22 different tumor types; Astrocytoma): 0/2
- No. of positive cases/total no. of cases studied (22 different tumor types; Breast carcinoma): 0/2
- No. of positive cases/total no. of cases studied (22 different tumor types; Carcinoid): 0/3
- No. of positive cases/total no. of cases studied (22 different tumor types; Colonic adenocarcinoma): 0/2
- No. of positive cases/total no. of cases studied (22 different tumor types; Epithelioid sarcoma): 0/1
- No. of positive cases/total no. of cases studied (22 different tumor types; Ewing's sarcoma): 0/1
- No. of positive cases/total no. of cases studied (22 different tumor types; Gastric carcinoma): 0/2
- No. of positive cases/total no. of cases studied (22 different tumor types; Hepatocellular carcinoma): 0/2
- No. of positive cases/total no. of cases studied (22 different tumor types; Hodgkin's lymphoma): 5/13
- No. of positive cases/total no. of cases studied (22 different tumor types; Leiomyoma): 0/2
- No. of positive cases/total no. of cases studied (22 different tumor types; Lung adeno carcinoma): 0/2
- No. of positive cases/total no. of cases studied (22 different tumor types; Lymphoma): 0/3
- No. of positive cases/total no. of cases studied (22 different tumor types; Malignant fibrous histiocytoma): 0/1
- No. of positive cases/total no. of cases studied (22 different tumor types; Melanoma): 2/4
- No. of positive cases/total no. of cases studied (22 different tumor types; Mesothelioma): 0/2
- No. of positive cases/total no. of cases studied (22 different tumor types; Ovarian carcinoma): 0/2
- No. of positive cases/total no. of cases studied (22 different tumor types; Pancreatic carcinoma): 0/2
- No. of positive cases/total no. of cases studied (22 different tumor types; Prostatic carcinoma): 1/1
- No. of positive cases/total no. of cases studied (22 different tumor types; Renal cell carcinoma): 0/2
- No. of positive cases/total no. of cases studied (22 different tumor types; Rhabdosarcoma): 2/2
- No. of positive cases/total no. of cases studied (22 different tumor types; Thyroid carcinoma): 0/2
- No. of positive cases/total no. of cases studied (22 different tumor types; Undifferentiated carcinoma): 0/4
- No. of positive cases/total no. of cases studied ([1]; Adipose): 0/2
- No. of positive cases/total no. of cases studied ([1]; Bladder): 0/2
- No. of positive cases/total no. of cases studied ([1]; Brain): 0/2
- No. of positive cases/total no. of cases studied ([1]; Breast): 0/2
- No. of positive cases/total no. of cases studied ([1]; Cerebullum): 0/2
- No. of positive cases/total no. of cases studied ([1]; Cervix): 0/2
- No. of positive cases/total no. of cases studied ([1]; Colon): 0/2
- No. of positive cases/total no. of cases studied ([1]; Diaphragm): 2/2
- No. of positive cases/total no. of cases studied ([1]; Duodenum): 0/2
- No. of positive cases/total no. of cases studied ([1]; Esophagus): 0/2
- No. of positive cases/total no. of cases studied ([1]; Gallbladder): 0/2
- No. of positive cases/total no. of cases studied ([1]; Heart): 0/2
- No. of positive cases/total no. of cases studied ([1]; Ileum): 2/2
- No. of positive cases/total no. of cases studied ([1]; Jejenum): 2/2
- No. of positive cases/total no. of cases studied ([1]; Kidney): 1/2
- No. of positive cases/total no. of cases studied ([1]; Liver): 0/2
- No. of positive cases/total no. of cases studied ([1]; Lung): 0/2
- No. of positive cases/total no. of cases studied ([1]; Ovary): 0/2
- No. of positive cases/total no. of cases studied ([1]; Pancreas): 0/2
- No. of positive cases/total no. of cases studied ([1]; Placenta): 1/4
- No. of positive cases/total no. of cases studied ([1]; Rectum): 0/2
- No. of positive cases/total no. of cases studied ([1]; Skeletal muscle): 2/2
- No. of positive cases/total no. of cases studied ([1]; Skin): 0/2
- No. of positive cases/total no. of cases studied ([1]; Spleen): 0/2
- No. of positive cases/total no. of cases studied ([1]; Stomach): 0/2
- No. of positive cases/total no. of cases studied ([1]; Testis): 0/2
- No. of positive cases/total no. of cases studied ([1]; Thymus): 0/2
- No. of positive cases/total no. of cases studied ([1]; Thyroid): 0/2
- No. of positive cases/total no. of cases studied ([1]; Tonsil): 0/2
- No. of positive cases/total no. of cases studied ([1]; Uterus): 0/2
